Measurements taken from patent US20160289698A1 (TRUSTEES OF DARTMOUTH COLLEGE, published 2016).

Legend:
KISS ME DEADLY 3 (KMD3) [1] = target: T1, KISS ME DEADLY 3 (KMD3) (Arabidopsis, UniProt O80582 1-409); experiment: BiFC (YFP^N/YFP^C fusions) in Arabidopsis protoplasts
T1 construct: Full-length protein; LexA fusion in yeast two-hybrid, YFP^N or YFP^C fusion in BiFC; also called At2g44130
T1 sequence (looked up): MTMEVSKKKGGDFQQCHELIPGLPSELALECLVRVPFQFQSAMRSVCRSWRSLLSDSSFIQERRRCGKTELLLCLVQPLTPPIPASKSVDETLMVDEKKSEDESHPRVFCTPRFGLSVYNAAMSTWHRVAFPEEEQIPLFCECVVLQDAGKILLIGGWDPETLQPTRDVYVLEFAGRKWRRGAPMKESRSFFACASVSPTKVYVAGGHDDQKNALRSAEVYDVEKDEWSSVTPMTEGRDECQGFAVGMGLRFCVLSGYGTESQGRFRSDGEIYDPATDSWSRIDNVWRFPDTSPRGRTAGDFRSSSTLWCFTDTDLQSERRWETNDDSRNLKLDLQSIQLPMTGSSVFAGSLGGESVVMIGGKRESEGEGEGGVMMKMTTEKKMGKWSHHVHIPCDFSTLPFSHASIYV
Procedure: (§1) Arabidopsis protoplasts were transfected as described (Kovtun, et al. (2000) Proc. Natl. Acad. Sci. USA 97(6):2940-2945) and incubated overnight at 22° C. under dim light (5 […]) and examined with an Axioplan2 fluorescent microscope (Carl Zeiss).
(§2) KMD proteins contain a conserved amino-terminal F-box motif. To determine if KMDs function as canonical F-box proteins, their interactions with known components of the Arabidopsis SCF complex were examined.

KISS ME DEADLY 2 (KMD2) [2] = target: T2, KISS ME DEADLY 2 (KMD2) (Arabidopsis, UniProt Q9LMR5 1-359); experiment: as above
T2 construct: Full-length protein; LexA fusion in yeast two-hybrid, YFP^N or YFP^C fusion in BiFC; also called At1g15670
T2 sequence (looked up): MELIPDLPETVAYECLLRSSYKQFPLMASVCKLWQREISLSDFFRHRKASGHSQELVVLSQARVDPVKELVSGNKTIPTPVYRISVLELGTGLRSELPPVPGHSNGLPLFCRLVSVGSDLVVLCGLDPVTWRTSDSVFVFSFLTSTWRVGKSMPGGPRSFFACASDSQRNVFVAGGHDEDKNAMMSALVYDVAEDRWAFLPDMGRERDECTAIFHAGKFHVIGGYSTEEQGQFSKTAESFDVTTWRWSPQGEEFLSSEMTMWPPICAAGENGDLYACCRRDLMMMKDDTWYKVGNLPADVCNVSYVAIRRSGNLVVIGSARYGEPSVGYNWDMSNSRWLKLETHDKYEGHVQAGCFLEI
Procedure: as §1, §2

KISS ME DEADLY 1 (KMD1) [3] = target: T3, KISS ME DEADLY 1 (KMD1) (Arabidopsis, UniProt Q9M8L2 1-354); experiment: as above
T3 construct: Full-length protein; also called At1g80440
T3 sequence (looked up): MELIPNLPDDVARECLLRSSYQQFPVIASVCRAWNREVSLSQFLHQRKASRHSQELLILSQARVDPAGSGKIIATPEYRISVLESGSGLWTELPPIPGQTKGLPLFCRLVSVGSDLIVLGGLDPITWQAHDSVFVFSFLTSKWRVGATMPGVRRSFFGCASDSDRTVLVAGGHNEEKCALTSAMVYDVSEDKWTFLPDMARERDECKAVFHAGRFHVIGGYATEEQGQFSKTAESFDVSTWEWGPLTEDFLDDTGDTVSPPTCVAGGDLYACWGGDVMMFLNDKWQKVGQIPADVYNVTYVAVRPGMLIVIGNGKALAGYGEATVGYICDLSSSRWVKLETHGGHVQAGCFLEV
Procedure: as §1, §2

KISS ME DEADLY 4 (KMD4) [4] = target: T4, KISS ME DEADLY 4 (KMD4) (Arabidopsis, UniProt Q9M1Y1 1-418); experiment: as above
T4 construct: Full-length protein; LexA fusion in yeast two-hybrid, YFP^N or YFP^C fusion in BiFC; also called At3g59940
T4 sequence (looked up): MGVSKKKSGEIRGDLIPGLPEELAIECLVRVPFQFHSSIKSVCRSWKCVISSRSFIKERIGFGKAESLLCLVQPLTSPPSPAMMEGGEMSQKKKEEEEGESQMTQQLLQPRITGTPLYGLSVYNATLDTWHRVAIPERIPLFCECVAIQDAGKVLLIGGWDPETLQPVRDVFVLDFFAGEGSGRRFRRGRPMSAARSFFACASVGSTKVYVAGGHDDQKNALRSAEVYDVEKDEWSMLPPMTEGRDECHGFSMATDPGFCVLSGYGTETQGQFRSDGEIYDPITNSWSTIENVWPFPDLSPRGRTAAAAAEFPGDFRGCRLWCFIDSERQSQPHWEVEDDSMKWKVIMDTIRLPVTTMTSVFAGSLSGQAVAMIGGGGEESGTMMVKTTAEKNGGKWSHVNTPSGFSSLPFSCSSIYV
Procedure: as §1, §2

KISS ME DEADLY 3 (KMD3) [5] = target: T1, KISS ME DEADLY 3 (KMD3); experiment: yeast two-hybrid (LexA-KMD bait, B42-ARR prey, X-gal)
Text: (§3) The DUPLEX-A™ system (OriGene Technologies) was used for yeast two-hybrid analysis of interactions. KMD cDNAs were cloned into the pGilda bait vector, which produces an in-frame fusion with the LexA DNA-binding domain. Type-B ARR coding sequences were cloned into the pJG4-5 prey vector, which produces a B42 activation domain. The yeast strain EGY48 (MATa, trp1, his3, ura3, leu2::6 LexAop-LEU2) that contains the lacZ reporter plasmid pSH18-34 was transformed with the appropriate “bait” and “prey” plasmids. Interactions were tested on 5-bromo-4-chloro-3-indolyl-p-D-galactopyranoside (X-gal) medium (Ryu, et al. (2005) Cell 120(3): 395-406).
(§4) The KMD proteins also interacted with ARR20 (type-B ARR subfamily-3), but not with ARR19 (subfamily-2) and ARR21 (subfamily-3). […] All four KMD proteins interacted with both ARR1 and ARR12 in a BiFC assay. Strong fluorescence was detected in the nuclei of cells, consistent with the subcellular localization of the type-B ARRs (Hwang & Sheen J (2001) Nature 413(6854):383-389; Mason, et al. (2004) Plant Physiol. 135(2):927-937).

KISS ME DEADLY 4 (KMD4) [6] = target: T4, KISS ME DEADLY 4 (KMD4); experiment: as above
Text: as §3, §4

ARR12 [7] = target: T5, ARR12 (Arabidopsis, UniProt P62598 1-596); experiment: yeast two-hybrid
T5 construct: YFP^N or YFP^C fusion of the full-length cDNA in BiFC; also called AtARR12; type-B response regulator AtARR12
T5 sequence (looked up): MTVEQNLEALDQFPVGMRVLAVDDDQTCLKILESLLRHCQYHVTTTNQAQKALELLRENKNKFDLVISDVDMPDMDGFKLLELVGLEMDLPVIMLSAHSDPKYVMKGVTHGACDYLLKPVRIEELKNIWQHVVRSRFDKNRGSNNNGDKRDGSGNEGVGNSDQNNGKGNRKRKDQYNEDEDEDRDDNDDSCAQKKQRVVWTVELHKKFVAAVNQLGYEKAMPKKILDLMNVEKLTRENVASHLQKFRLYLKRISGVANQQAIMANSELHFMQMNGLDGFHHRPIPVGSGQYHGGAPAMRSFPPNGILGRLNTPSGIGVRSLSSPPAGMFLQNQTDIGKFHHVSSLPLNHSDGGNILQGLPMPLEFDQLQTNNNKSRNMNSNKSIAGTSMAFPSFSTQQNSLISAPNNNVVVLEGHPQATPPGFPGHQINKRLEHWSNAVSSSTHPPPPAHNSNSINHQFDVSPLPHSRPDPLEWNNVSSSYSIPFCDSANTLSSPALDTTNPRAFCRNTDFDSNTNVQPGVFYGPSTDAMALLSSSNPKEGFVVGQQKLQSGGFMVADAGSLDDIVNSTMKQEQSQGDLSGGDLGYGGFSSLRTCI

KISS ME DEADLY 3 (KMD3) [8] = target: T1, KISS ME DEADLY 3 (KMD3); experiment: yeast two-hybrid (LexA-KMD bait, X-gal)
Text: as §3, §4

KISS ME DEADLY 2 (KMD2) [9] = target: T2, KISS ME DEADLY 2 (KMD2); experiment: yeast two-hybrid (LexA-KMD bait, X-gal)
Text: as §3, §4

KISS ME DEADLY 1 (KMD1) [10] = target: T3, KISS ME DEADLY 1 (KMD1); experiment: yeast two-hybrid (LexA-KMD bait, X-gal)
Text: as §3, §4

KISS ME DEADLY 4 (KMD4) [11] = target: T4, KISS ME DEADLY 4 (KMD4); experiment: yeast two-hybrid (LexA-KMD bait, X-gal)
Text: as §3, §4

KISS ME DEADLY 1 (KMD1) [12] = target: T3, KISS ME DEADLY 1 (KMD1); experiment: BiFC with ARR fragments; the weaker of the two interactions
ARR12 [13] = target: T5, ARR12; experiment: yeast two-hybrid, positive control

B1: ASK1, an Arabidopsis Skp1 protein of the SCF complex (other, UniProt Q39255 1-160, looked up)
chain: MSAKKIVLKSSDGESFEVEEAVALESQTIAHMVEDDCVDNGVPLPNVTSKILAKVIEYCKRHVEAAASKAEAVEGAATSDDDLKAWDADFMKIDQATLFELILAANYLNIKNLLDLTCQTVADMIKGKTPEEIRTTFNIKNDFTPEEEEEVRRENQWAFE
notes: Full-length cDNA fused to YFP^N or YFP^C for BiFC
binding result (KISS ME DEADLY 3 (KMD3) [1]): binds | binding result (KISS ME DEADLY 2 (KMD2) [2]): binds | binding result (KISS ME DEADLY 1 (KMD1) [3]): binds | binding result (KISS ME DEADLY 4 (KMD4) [4]): binds

B2: ARR19 (subfamily-2) (other, Arabidopsis, UniProt Q9M9B9 1-407, looked up)
chain: MLVGKISGYEDNTRSLERETSEITSLLSQFPGNTNVLVVDTNFTTLLNMKQIMKQYAYQVSIETDAEKALAFLTSCKHEINIVIWDFHMPGIDGLQALKSITSKLDLPVVIMSDDNQTESVMKATFYGACDYVVKPVKEEVMANIWQHIVRKRLIFKPDVAPPKPRMTWSEVFQPVQSHLVPTDGLDRDHFDSITINGGNGIQNMEKKQGKKPRKPRMTWTEELHQKFLEAIEIIGGIEKANPKVLVECLQEMRIEGITRSNVASHLQKHRINLEENQIPQQTQGNGWATAYGTLAPSLQGSDNVNTTIPSYLMNGPATLNQIQQNQYQNGFLTMNNNQIITNPPPPLPYLDHHHQQQHQSSPQFNYLMNNEELLQASGLSATDLELTYPSLPYDPQEYLINGYNYN
binding result (KISS ME DEADLY 3 (KMD3) [5]): no binding | binding result (KISS ME DEADLY 4 (KMD4) [6]): no binding

B3: OsKMD2 (other)
chain: MGYNELIPGLPEEVARECLIRVGFDQLPAVRRISRQWKAEVESPAYNRLRKAEGLARPALALVQARRELAEAGPAADKQSSAGGVPGNSYRMVLLDPAEGRWTPLPEVGGASGSLPLFCQVAAVDGGVEGRKRLVVVGGWDPETWAPTDSVLVYDFLTGAWRRGAAMPGPRRSFFACAAVGGKVFVAGGHDEEKNALRSALAYDPDADAWAALPDMAEERDEPRGLCVDGKFLVVGGYPTPAQGRFVGSAEWFDPATSTWSAVQEGFVDDGACPRTCSAAPEAGDRMYMLRDGHLVARHGAISSAPAAWRPVAPVPEDARTAAAVSVIPDGRVVVIGSDCHGGDQTVYTLREEAGKPASWARAPAPPEFSGHVQAACLLEI
notes: Tested in yeast two-hybrid; The fusion partner (LexA bait as for the Arabidopsis KMDs) is not restated for OsKMD2; also called rice KMD2; Os06g39370
binding result (ARR12 [7]): binds

B4: ARR4 (type-A ARR) (other, Arabidopsis, UniProt O82798 1-259, looked up)
chain: MARDGGVSCLRRSEMMSVGGIGGIESAPLDLDEVHVLAVDDSLVDRIVIERLLRITSCKVTAVDSGWRALEFLGLDNEKASAEFDRLKVDLIITDYCMPGMTGYELLKKIKESSNFREVPVVIMSSENVLTRIDRCLEEGAQDFLLKPVKLADVKRLRSHLTKDVKLSNGNKRKLPEDSSSVNSSLPPPSPPLTISPESSPPLTVSTESSDSSPPLSPVEIFSTSPLSSPIDDEDDDVLTSSSEESPIRRQKMRSPGLD
notes: Prey in yeast two-hybrid
binding result (KISS ME DEADLY 3 (KMD3) [8]): no binding | binding result (KISS ME DEADLY 2 (KMD2) [9]): no binding | binding result (KISS ME DEADLY 1 (KMD1) [10]): no binding | binding result (KISS ME DEADLY 4 (KMD4) [11]): no binding

B5: ARR7 (type-A ARR) (other, Arabidopsis, UniProt Q9ZWS7 1-206, looked up)
chain: MAVGEVMRMEIPAGGDLTVTTPELHVLAVDDSIVDRKVIERLLRISSCKVTTVESGTRALQYLGLDGGKGASNLKDLKVNLIVTDYSMPGLSGYDLLKKIKESSAFREVPVVIMSSENILPRIQECLKEGAEEFLLKPVKLADVKRIKQLIMRNEAEECKILSHSNKRKLQEDSDTSSSSHDDTSIKDSSCSKRMKSESENLFSLL
notes: Prey in yeast two-hybrid
binding result (KISS ME DEADLY 3 (KMD3) [8]): no binding | binding result (KISS ME DEADLY 2 (KMD2) [9]): no binding | binding result (KISS ME DEADLY 1 (KMD1) [10]): no binding | binding result (KISS ME DEADLY 4 (KMD4) [11]): no binding

B6: ARR12 (1-134) (other, Arabidopsis, UniProt P62598 1-134, looked up)
chain: MTVEQNLEALDQFPVGMRVLAVDDDQTCLKILESLLRHCQYHVTTTNQAQKALELLRENKNKFDLVISDVDMPDMDGFKLLELVGLEMDLPVIMLSAHSDPKYVMKGVTHGACDYLLKPVRIEELKNIWQHVVR
notes: range 1-134; Fused to a YFP fragment for BiFC; also called receiver domain of ARR12
binding result (KISS ME DEADLY 1 (KMD1) [12]): binds

B7: phosphotransfer protein AtAHP2 (other, Arabidopsis, UniProt Q9ZNV8 1-156, looked up)
chain: MDALIAQLQRQFRDYTISLYQQGFLDDQFTELKKLQDDGSPDFVSEVLSLFFEDCVKLISNMARALDTTGTVDFSQVGASVHQLKGSSSSVGAKRVKTLCVSFKECCEAKNYEGCVRCLQQVDIEYKALKTKLQDMFNLEKQIIQAGGIVPQVDIN
notes: Positive control in the yeast two-hybrid test with AtARR12; construct not described
binding result (ARR12 [13]): binds
